Earlier results as cited in patent US20090215646A1, “SYSTEM AND METHOD OF ANALYTE DETECTION USING DIFFERENTIAL RECEPTORS” (The Board of Regents of the University of Texas Sy, priority 2005, published 2009).

B1: Ovalbumin: glycoprotein analyte obtained commercially (protein, UniProt P01012 2-386, looked up)
Ovalbumin: GSIGAASMEFCFDVFKELKVHHANENIFYCPIAIMSALAMVYLGAKDSTRTQINKVVRFDKLPGFGDSIEAQCGTSVNVHSSLRDILNQITKPNDVYSFSLASRLYAEERYPILPEYLQCVKELYRGGLEPINFQTAADQARELINSWVESQTNGIIRNVLQPSSVDSQTAMVLVNAIVFKGLWEKAFKDEDTQAMPFRVTEQESKPVQMMYQIGLFRVASMASEKMKILELPFASGTMSMLVLLPDEVSGLEQLESIINFEKLTEWTSSNVMEERKIKVYLPRMKMEEKYNLTSVLMAMGITDVFSSSANLSGISSAESLKISQAVHAAHAEINEAGREVVGSAEAGVDAASVSEEFRADHPFLFCIKHIATNAVLFFGRCVSP

Conditions: isoelectric point
In the case of “Fetuin: glycoprotein analyte obtained commercially”, the pI is listed as 4.5-4.9.
In the case of “Lysozyme: protein analyte obtained commercially”, the pI is listed as 9.6-11.
For B1, the pI is given as 4.6.
